Results taken from paper PMC12501226.

Legend:
Assay in all cases: SEC
[1] = target: T3A (collagen XVIII trimerization domain, 3-residue G/S linker, ACE2 18-615) (human) (UniProt P39060)
[2] = target: T1A (collagen XVIII trimerization domain, 1-residue G/S linker, ACE2 18-615) (human) (UniProt P39060)
[3] = target: T18A (collagen XVIII trimerization domain, 18-residue G/S linker, ACE2 18-615) (human) (UniProt P39060)
[4] = target: T5A (collagen XVIII trimerization domain, 5-residue G/S linker, ACE2 18-615) (human) (UniProt P39060)

Which stoichiometry N [1] does the source give for “T3A (collagen XVIII trimerization domain, 3-residue G/S linker, ACE2 18-615) (from UniProt P39060;Q9BYF1)” here?
Its stoichiometry N is 3.

With “T1A (collagen XVIII trimerization domain, 1-residue G/S linker, ACE2 18-615) (from UniProt P39060;Q9BYF1)” as the substance, how does the stoichiometry N [2] read?
The stoichiometry N was 3.

How did the stoichiometry N [3] turn out when “T18A (collagen XVIII trimerization domain, 18-residue G/S linker, ACE2 18-615) (from UniProt P39060;Q9BYF1)” was run?
Its stoichiometry N is 3.

Which stoichiometry N [4] does the source give for “T5A (collagen XVIII trimerization domain, 5-residue G/S linker, ACE2 18-615) (from UniProt P39060;Q9BYF1)” here?
Its stoichiometry N is 3.
